According to paper PMC5389604:

Biological target: T1, RarA (MgsA) (Escherichia coli, UniProt P0AAZ4 1-447)
T1 sequence: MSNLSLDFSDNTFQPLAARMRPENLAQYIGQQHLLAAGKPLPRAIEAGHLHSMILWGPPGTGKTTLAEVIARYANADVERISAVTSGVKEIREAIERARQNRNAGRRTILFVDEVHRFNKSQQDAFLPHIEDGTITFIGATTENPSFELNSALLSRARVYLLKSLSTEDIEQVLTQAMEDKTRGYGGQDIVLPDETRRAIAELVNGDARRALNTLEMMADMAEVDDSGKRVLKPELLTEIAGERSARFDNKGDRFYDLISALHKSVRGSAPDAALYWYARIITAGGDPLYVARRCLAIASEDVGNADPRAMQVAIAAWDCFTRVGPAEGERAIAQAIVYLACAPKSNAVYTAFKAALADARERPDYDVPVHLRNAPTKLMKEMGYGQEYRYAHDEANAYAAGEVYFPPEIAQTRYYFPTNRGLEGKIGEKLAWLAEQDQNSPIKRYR
Test: fluorescence polarization

In the case of ACACAGAAGGAGACGG (ssDNA) [oANP031_F 16 nt ssDNA], the Kd is reported as 890 ± 28 nM.
